Results on 1 molecule are retold here after patent US20220119448A1 (ZHEJIANG DOER BIOLOGICS, published 2022).

The Kd is the equilibrium constant for the complex coming apart. In general, IC50 refers to the concentration needed to halve the response being measured.

In assay [1] the target is T1, VEGF (UniProt P15692-4 27-191, limits assumed, biotin-labelled (Sulfo-NHS biotin, molar ratio 2:1) in the BLI assay; unlabelled in the competition ELISA).
T1 construct: also called biotin-labeled VEGF
Kind of assay: BLI (Octet-QK), biotin-VEGF on SA probe; repeat 1. From the text:
(§1) The binding affinities of the fusion proteins were detected using BLI (Bio-layer inteferometry, ForteBio). […] Excess biotin not involved in labeling was removed by dialysis. […] The buffer used in the experiment was PBS (containing 0.1% Tween-20). […] Based on the program settings, the fusion proteins were bound, and then dissociated in PBST solution, to obtain the experimental curves. According to the result analysis software of Octet-QK, local full was used to fit the curves of the experimental results, then kon, kdis and Kd were determined.
(In general: BLI is a label-free optical method that tracks binding on a fibre tip over time.)

For assay [2], the target named is T1, VEGF. The assay is described as follows: BLI (Octet-QK), biotin-VEGF on SA probe; repeat 2.
From the text: as §1

In assay [3] the target is T1, VEGF. The assay is described as follows: BLI (Octet-QK), biotin-VEGF on SA probe; repeat 3.
From the text: as §1

Assay [4] addresses T1, VEGF. Kind of assay: BLI (Octet-QK), biotin-VEGF on SA probe; average of 3 repeats (STD 0.11).
From the text: as §1

The target in assay [5] is T1, VEGF. The assay is described as follows: competition ELISA: inhibition of VEGF binding to plate-coated VEGF Receptor 2 (KDR). As for the experimental part:
(§2) The plate was then blocked with 1% BSA/TBS and placed at 37° C. for 1 h; 1% BSA/TBS was added to the plate, 200 μL per well, and placed at 37° C. for 2 h.
(§3) Then, the stock solutions were diluted by 3 times to a total of 11 concentrations. […] The KDR-coated ELISA plate was washed twice and pat-dried. The mixture was successively transferred to the ELISA plate and placed at 37° C. for 1 h, then the plate was washed for 6 times. […] The plate was placed at 37° C. for 1 h and washed for 6 times. Then, goat anti-rat secondary antibody (Pierce, 31432, QA1969921) diluted at 1:1000 was added, 50 μL per well. The plate was placed at 37° C. for 1 h and washed for 6 times. Color developing solution was added after reaction, and the plated was incubated at 37° C. for 15 min. Stop buffer was added to terminate the color reaction. OD450 values were read on a microplate reader.
In general terms: In an ELISA, binding on a coated surface is turned into a signal by an enzyme label.

Assay [6] deals with T1, VEGF. The assay is described as follows: competition ELISA: sample pre-mixed with VEGF, mixture put on a plate coated with VEGF Receptor 2 (KDR), bound VEGF detected with mouse anti-human VEGF antibody, OD450; blocked ligand-receptor pair VEGF/KDR. How it is done: as §2, §3

T1 sequence (P15692 other isoform, or with tags, fused parts or gaps limits assumed): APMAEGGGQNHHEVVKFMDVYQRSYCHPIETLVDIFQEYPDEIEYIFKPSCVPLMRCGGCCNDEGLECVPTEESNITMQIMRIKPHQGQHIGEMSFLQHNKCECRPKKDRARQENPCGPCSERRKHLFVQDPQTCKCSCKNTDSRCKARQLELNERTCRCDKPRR

B1: PU98x43-ARVEGF (designed binder)
chain: AEPAAPAPAEPAAPAPEAPAAEPAAPAPAEPAAPAPEAPAAEPAAPAPAEPAAPAPEAPAAEPAAPAPAEPAAPAPEAPAAEPAAPAPAEPAAPAPEAPAAEPAAPAPAEPAAPAPEAPAAEPAAPAPAEPAAPAPEAPAAEPAAPAPAEPAAPAPEAPAAEPAAPAPAEPAAPAPEAPAAEPAAPAPAEPAAPAPEAPAAEPAAPAPAEPAAPAPEAPAAEPAAPAPAEPAAPAPEAPAAEPAAPAPAEPAAPAPEAPAAEPAAPAPAEPAAPAPEAPAAEPAAPAPAEPAAPAPEAPAAEPAAPAPAEPAAPAPEAPAAEPAAPAPAEPAAPAPEAPAAEPAAPAPAEPAAPAPEAPAAEPAAPAPAEPAAPAPEAPAAEPAAPAPAEPAAPAPEAPAAEPAAPAPAEPAAPAPEAPAAEPAAPAPAEPAAPAPEAPAAEPAAPAPAEPAAPAPEAPAAEPAAPAPAEPAAPAPEAPAAEPAAPAPAEPAAPAPEAPAAEPAAPAPAEPAAPAPEAPAAEPAAPAPAEPAAPAPEAPAAEPAAPAPAEPAAPAPEAPAAEPAAPAPAEPAAPAPEAPAAEPAAPAPAEPAAPAPEAPAAEPAAPAPAEPAAPAPEAPAAEPAAPAPAEPAAPAPEAPAAEPAAPAPAEPAAPAPEAPAAEPAAPAPAEPAAPAPEAPAAEPAAPAPAEPAAPAPEAPAAEPAAPAPAEPAAPAPEAPAAEPAAPAPAEPAAPAPEAPAAEPAAPAPAEPAAPAPEAPAAEPAAPAPAEPAAPAPEAPAAEPAAPAPAEPAAPAPEAPAAEPAAPAPAEPAAPAPEAPAAEPAAPAPAEPAAPAPEAPAAEPAAPAPAEPAAPAPEAPAGSDLDKKLLEAARAGQDDEVRILMANGADVNARDSTGWTPLHLAAPWGHPEIVEVLLKNGADVNAADFQGWTPLHLAAAVGHLEIVEVLLKYGADVNAQDKFGKTAFDISIDNGNEDLAEILQKAA
notes: also called PU-ARVEGF fusion protein
Turning to B1, the Kd came to 0.63 nM in assay [1], 0.49 nM in assay [2], 0.42 nM in assay [3] and 0.51 nM in assay [4]. The IC50 in assay [5] was determined as 0.51 nM. Moreover, the “IC50 (read off the curve)” value in assay [6] is roughly 0.3 nM.
